{
  "source": "paper PMC6265900",
  "key": {"factor XIIa": {"target": "factor XIIa", "test": "enzyme inhibition with chromogenic substrate (Dixon plot); enzyme (FXIIa 10 nM, plasma kallikrein 80 nM, trypsin 800 nM, elastase 400 nM) incubated with 0.5, 1 and 2 uM native poecistasin in 60 uL of 50 mM Tris buffer pH 7.4 for 5 min, then 0.2 mM chromogenic substrate; absorbance at 405 nm for 10 min; Ki from Dixon plot"}, "plasma kallikrein": {"target": "plasma kallikrein", "test": "enzyme inhibition with chromogenic substrate (Dixon plot); enzyme (FXIIa 10 nM, plasma kallikrein 80 nM, trypsin 800 nM, elastase 400 nM) incubated with 0.5, 1 and 2 uM native poecistasin in 60 uL of 50 mM Tris buffer pH 7.4 for 5 min, then 0.2 mM chromogenic substrate; absorbance at 405 nm for 10 min; Ki from Dixon plot"}},
  "data": [
    {"substance": "native poecistasin (natural protein)", "values": [
      {"measurement": "Ki", "setting": "factor XIIa", "value": 9.31, "unit": "nM"},
      {"measurement": "Ki", "setting": "plasma kallikrein", "value": 52, "unit": "nM"}
    ]}
  ]
}
